Test results as given in patent US5989519A, “Technetium-99m labeled peptides for imaging inflammation” (Diatide, Inc., priority 1994, dated 1999).
Numbered stars: 1 amine (or outer) side, 2 acyl side, 3 side chain; on linkers, the order of the positions; unused ones are H or OH. Square brackets hold non-standard residues; d marks the D form. Ends that are not written are not given here. Peptide text beside a SMILES is read from it. * marks the point of attachment. BAT = N6,N9-bis(2-methyl-2-mercaptopropyl)-6,9-diazanonanoic acid (chelator), CC(C)(S)CNCCN(CCCCC(=O)*)CC(C)(C)S; C(Acm) = CC(=O)NCSC[C@H](N[*:1])C(=O)[*:2]; X1 = CC(C)(S)CNCCN(CCCCC(=O)*)CC(C)(C)S; pGlu = O=C1CC[C@@H](C(=O)O)N1; Picolinoyl = O=C(c1ccccn1)*; Acm = CC(=O)NC*; For = O=C*

What was measured:
in vivo = assay: in vivo; design: species or system New Zealand white rabbits; conditions: rabbit, iv
Method: (§1) After 24 h, the animals were sedated by i.m. injection of ketamine and xylazine, and then injected i.v. with Tc-99m labeled peptide (≤150 μg, 2-10 mCi). The animals were positioned supine in the field of view of a gamma camera (LEAP colimator/photopeaked for Tc-99m) and imaged over the first hour post-injection, and then at approximately 1 h intervals over the next three hours post injection. Animals were allowed to recover between image acquisitions and re-anesthetized as needed.
(§2) Upon completion of the final imaging, each animal was sacrificed by overdose of phenobarbital i.v. and dissected to obtain samples of blood and of infected and control muscle tissue. The tissue samples were weighed, and along with a standard amount of the injected dose, were counted using a gamma counter, and the percent injected dose (per gram of tissue) remaining in the tissues was determined. Ratios of percent of injected dose per gram of infected versus non-infected muscle tissue, and of infected muscle tissue versus blood, were calculated for each peptide. Scintiphotos of whole body and leg images of a rabbit injected with a Tc-99m labeled reagent of the invention, having the formula

infected muscle tissue = assay: in vivo; design: species or system New Zealand white rabbits; conditions: rabbit; for Blood (% ID/g) / Control Muscle (% ID/g): iv
Method: as §1, §2

[1] = New Zealand white, total radioactivity, Blood (% ID/g)
[2] = New Zealand white, total radioactivity, Control Muscle (% ID/g)

Molecule | tissue uptake (in vivo; Blood (% ID/g)) [%ID/g] | tissue uptake (in vivo; Control Muscle (% ID/g)) [%ID/g] | Ratio of Infected/Blood (infected muscle tissue) | Ratio of Infected/Control (infected muscle tissue) | tissue uptake (in vivo; [1]) [%ID/g] | tissue uptake (in vivo; [2]) [%ID/g] | Blood (% ID/g) (infected muscle tissue) | Control Muscle (% ID/g) (infected muscle tissue)
CSCC[C@H](NC=O)C(=O)N[C@@H](CC(C)C)C(=O)N[C@@H](Cc1ccccc1)C(=O)N[C@@H](CCCCNC(=O)CCCCN(CCNCC(C)(C)S)CC(C)(C)S)C(N)=O (99mTc complex, metal not drawn) [formyl.MLFK.[BAT]amide, formyl.MLFK.[BAT].amide] (For-MLFK(X1)-NH2) | 0.006 | 0.0028 | 3.58 | 7.68 |  |  |  | 
CCCC(CCC)(NC(=O)[C@H](CCSC)NC=O)C(=O)N[C@@H](Cc1ccccc1)C(=O)NCCCCCN(CCNCC(C)(C)S)CC(C)(C)S [formyl.M.Dpg.F.[BAM], formyl.M.DpgF.[BAM]] |  |  | 3.53 | 15.14 | 0.003 | 0.0007 |  | 
CC(C)C[C@H](NC(=O)C1(NC=O)CCSCC1)C(=O)N[C@@H](Cc1ccccc1)C(=O)NCCCCCN(CCNCC(C)(C)S)CC(C)(C)S [formyl.Thp.LF.[BAM]] |  |  | 0.83 | 4.80 | 0.006 | 0.001 |  | 
(acetyl.CCAcm GCAcm PLYKKIIKKLLES)2.BSME ({Ac-Cys-C(Acm)-Gly-C(Acm)}-PLYKKIIKKLLES; also: dimer via BSME, Tc-99m label) [(Ac.CCAcm GCAcm PLYKKIIKKLLES)2 BSME] |  |  | 0.84 | 7.45 |  |  | 0.010 | 0.0011
CAcm GCAcm (VGVAPG)3 amide (C(Acm)GC(Acm)VGVAPGVGVAPGVGVAPG-NH2; also: Tc-99m label) |  |  | 1.69 | 3.94 |  |  | 0.011 | 0.0017
CAcm GCAcm TKPR (C(Acm)GC(Acm)TKPR; also: Tc-99m label) |  |  | 2.07 | 2.40 |  |  | 0.003 | 0.0025
Pic.GC(VGVAPG)3 amide (Picolinoyl-GCVGVAPGVGVAPGVGVAPG-NH2; numbers in words are those of the source; also: Tc-99m label) [PicGC(VGVAPG)3 amide] |  |  | 0.69 | 5.58 |  |  | 0.015 | 0.0019
[BAT].(VPGVG)4 amide ({BAT}-VPGVGVPGVGVPGVGVPGVG-NH2; also: Tc-99m label) |  |  | 1.68 | 5.33 |  |  | 0.002 | 0.0006
[BAT].GGPLYKKIIKKLLES ({BAT}-GGPLYKKIIKKLLES; also: Tc-99m label) |  |  | 0.50 | 7.00 |  |  | 0.004 | 0.0003
acetyl.CAcm GCAcm GGG(VPGVG)4 amide (Ac-C(Acm)GC(Acm)GGGVPGVGVPGVGVPGVGVPGVG-NH2; also: Tc-99m label) [Ac.CAcm GCAcm GGG(VPGVG)4 amide] |  |  | 0.63 | 3.97 |  |  | 0.049 | 0.0077
acetyl.CGGGPLYKKIIKKLLES (Ac-CGGGPLYKKIIKKLLES) [Ac.CGGGPLYKKIIKKLLES] |  |  | 0.74 | 4.70 |  |  | 0.032 | 0.0050
acetyl.KKKKKCAcm GCAcm GGPLYKKIIKKLLES (Ac-KKKKKC(Acm)GC(Acm)GGPLYKKIIKKLLES; also: Tc-99m label) [Ac.KKKKKCAcm GCAcm GGPLYKKIIKKLLES] |  |  | 0.93 | 5.60 |  |  | 0.006 | 0.0019
pGlu.GVNDNEEGFFSARCAcm GCAcm amide ([pGlu]GVNDNEEGFFSARC(Acm)GC(Acm)-NH2; also: Tc-99m label) |  |  | 0.68 | 5.68 |  |  | 0.024 | 0.0029
